Measurements: patent US7012060B1, “TNF receptor and steroid hormone in a combined therapy” (priority 1995, dated 2006)
Marks after values point to notes of the source that are not given here.

Experiments:
septic shock = settings: urinary and recombinant TBP-1 (CHO and E. Coli); cited from earlier work
[1] = test system: septic shock induced by LPS + D-Galactosamine, in mice; test: LPS+D-Galactosamine-induced septic shock model; assay type: in vivo, SPF female BALB/c inbred mice
Description: The experiments were carried out in vivo on mice. The septic shock was induced by an i.p. administration of a mixture of LPS (0.1 μg/mouse) and D-Galactosamine (18 mg/mouse).
The treatment schedule for r-hTBP-1 based on repeated administrations (the total dose was divided into 4 administrations given at time 0 and […] and 24 hours after), was adopted. CHO r-hTBP-1 was tested, alone or in combination with DHEA, at dose levels of 62.5 and 125 μg/mouse (total dose).
DHEA was tested both in a single administration injected i.p. one hour before and contemporaneously to the septic shock-inducing agent at doses encompassed between 100 and 2.000 μg/mouse and in repeated treatment with the total dose (250 μg/mouse) divided into 4 injections given within 24 hours.
The above treatment schedules of DHEA (doses from 250 to 1,500 μl g/mouse) were followed also in combination with r-hTBP-1 which was tested at the total dose varying from 62.5 to 125 μg/mouse (divided into 4 administrations).
SPF female BALB/c inbred mice, 6–8 weeks (about 18–20 g b.w.), from Charles River were used throughout the whole study after an acclimatisation period of at least 7 days.
Unless otherwise specified, in all the experiments the mice were randomly divided into groups of 10 animals each.
Both substances were dissolved in saline. The mixture of LPS (0.1 μg/mouse) and D-Galactosamine (18 mg/mouse) was prepared by mixing equal volumes of these substances. The mixture was subsequently injected to animals by the i.p. route. This dose was selected under precious experiments as that inducing around 80% mortality calculated as the number of dead vs. total number of mice for each croup. The lethality was monitored after 24, 48, 72 and 96 hours and at day 7 post-treatment.
The drug was diluted in saline and injected by repeated administrations, i.e. i.v. immediately before the inoculum of LPS plus D-Galactosamine and s.c. 3, 6 and 24 hours later.
The effects of DHEA, alone or in combination with r-hTBP-1, were assayed after single i.p. administrations at different times in respect to LPS+D-Galactosamine injection; in particular, it was administered 1 hour before and contemporaneously to the septic shock-inducing agent.
A repeated treatment schedule was also investigated in which DHEA was administered at time 0 (septic shock induction) and 3, 6 and 24 hours later. DHEA was initially vehicled in a mixture of 2.5% alcohol and 10% rabbit serum in saline. To improve the solubility and standardise the preparation, the steroid was successively dispersed in a mixture of 2.5% alcohol and 10% phospholipid emulsion in saline.
The primary end point was the survival rate at 48 hours after induction of septic shock. The comparison of the effects of each treatment group vs. controls and among treatment groups was effected by Fisher's exact test, one-tailed. The same comparison was also performed at the other time points. The results in each treatment group were expressed as percent survival.
In all the experiments, percent survival values were calculated using the survival Tables for the follow up studies (Armitage P. Cap. XIV. Tavole di sopravvivenza in Statistica Medica, Feltrinelli, Milano). The χ^2-test was applied to each observation time by comparing the DHEA+r-hTBP-1 groups to the other groups.

B1: TBP-1: urinary as well as recombinant TBP-1 (derived from both CHO and E. Coli cells), literature (protein, UniProt P19438 30-211, looked up)
extracellular domain: LVPHLGDREKRDSVCPQGKYIHPQNNSICCTKCHKGTYLYNDCPGPGQDTDCRECESGSFTASENHLRHCLSCSKCRKEMGQVEISSCTVDRDTVCGCRKNQYRHYWSENLFQCFNCSLCLNGTVHLSCQEKQNTVCTCHAGFFLRENECVSCSNCKKSLECTKLCLPQIENVKGTEDSGTT
modifications: extracellular domain
notes: urinary as well as recombinant TBP-1 (derived from both CHO and E. Coli cells), literature
Septic shock
  in vivo protective effects: protective effects

B2: r-hTBP-1: CHO recombinant human TBP-1, the extracellular soluble domain of TNF-R1 (TNF Binding Protein-1) (protein, UniProt P19438 30-211, looked up)
extracellular domain: LVPHLGDREKRDSVCPQGKYIHPQNNSICCTKCHKGTYLYNDCPGPGQDTDCRECESGSFTASENHLRHCLSCSKCRKEMGQVEISSCTVDRDTVCGCRKNQYRHYWSENLFQCFNCSLCLNGTVHLSCQEKQNTVCTCHAGFFLRENECVSCSNCKKSLECTKLCLPQIENVKGTEDSGTT
modifications: extracellular domain
[1]; Table 2, r-hTBP-1 125 μg/mouse, time 0 (i.v.) and 3, 6, 24 hours (s.c.), 24 hrs
  % cumulative survival: 50%
[1]; Table 2, r-hTBP-1 125 μg/mouse, time 0 (i.v.) and 3, 6, 24 hours (s.c.), 48 hrs
  % cumulative survival: 50%
[1]; Table 2, r-hTBP-1 125 μg/mouse, time 0 (i.v.) and 3, 6, 24 hours (s.c.), 72 hrs
  % cumulative survival: 50%
[1]; Table 2, r-hTBP-1 125 μg/mouse, time 0 (i.v.) and 3, 6, 24 hours (s.c.), 96 hrs
  % cumulative survival: 50%
[1]; Table 4, r-hTBP-1 62.5 μg/mouse, time 0 (i.v.) and 3, 6, 24 hours (s.c.), 24 hr
  % cumulative survival: 20%
[1]; Table 4, r-hTBP-1 62.5 μg/mouse, time 0 (i.v.) and 3, 6, 24 hours (s.c.), 48 hr
  % cumulative survival: 10%
[1]; Table 4, r-hTBP-1 62.5 μg/mouse, time 0 (i.v.) and 3, 6, 24 hours (s.c.), 72 hr
  % cumulative survival: 0%
[1]; Table 4, r-hTBP-1 62.5 μg/mouse, time 0 (i.v.) and 3, 6, 24 hours (s.c.), 96 hr
  % cumulative survival: 0%
[1]; Table 5 group C, r-hTBP-1 62.5 μg, time 0 i.v. and 3, 6, 24 hours s.c., 24 hrs, 1st exp.
  % cumulative survival: 90^a %
[1]; Table 5 group C, r-hTBP-1 62.5 μg, time 0 i.v. and 3, 6, 24 hours s.c., 24 hrs, 2nd exp.
  % cumulative survival: 70^a %
[1]; Table 5 group C, r-hTBP-1 62.5 μg, time 0 i.v. and 3, 6, 24 hours s.c., 48 hrs, 1st exp.
  % cumulative survival: 80^a %
[1]; Table 5 group C, r-hTBP-1 62.5 μg, time 0 i.v. and 3, 6, 24 hours s.c., 48 hrs, 2nd exp.
  % cumulative survival: 40%
[1]; Table 5 group C, r-hTBP-1 62.5 μg, time 0 i.v. and 3, 6, 24 hours s.c., 72 hrs, 1st exp.
  % cumulative survival: 70^a %
[1]; Table 5 group C, r-hTBP-1 62.5 μg, time 0 i.v. and 3, 6, 24 hours s.c., 72 hrs, 2nd exp.
  % cumulative survival: 30%
[1]; Table 5 group C, r-hTBP-1 62.5 μg, time 0 i.v. and 3, 6, 24 hours s.c., 96 hrs, 1st exp.
  % cumulative survival: 70^a %
[1]; Table 5 group C, r-hTBP-1 62.5 μg, time 0 i.v. and 3, 6, 24 hours s.c., 96 hrs, 2nd exp.
  % cumulative survival: 30%
[1]; r-hTBP-1 62.5 μg/mouse alone
  protection (survival): 20%
[1]; r-hTBP-1 125 μg/mouse alone (suboptimal dose)
  survival: about 50%
[1]; text (conclusions), r-hTBP-1 125 μg/mouse total dose alone
  survival: 50%
